{"source": "patent CN117567617A", "molecular_target": "人CLDN18.2 (human claudin18.2) (human) (UniProt P56856)", "test": "cell-based or functional assay"}
{"binder": "全人源抗CLDN18.2抗体2A2 (CLDN-BC-2A2-hH1) (antibody, V domains shown) VH: QVQLQQWGPGLVKPSQTLSLTCTVSGGSISSVGYYWSWIRQHPGQGLEWVGYIYYSGGTYYNPSLKSRVTISLDTSKNQFSLKLTSVTAADTAVYYCASYGSVSPYYYYYGMDVWGQGTTVTVSS VL: DIVMTQSPSSVSASVGDRVTITCRASQGISSWLAWYQQKPGKAPNLLISAASSLQSGVPSRFSGNGSGTDFTLTISSLQPEDFASYYCQQANSFPITFGQGTRLEIK", "values": [{"measurement": "CDC活性 EC50 (Presto Blue, complement)", "result": 10.9, "unit": "µg/mL"}]}
